Read-outs that look alike come from different tables or passages of the source. Bridges are numbered along the chain shown (N, C = ends). Where no end group is shown, it is not given here. [ ]: non-standard residue; d: D form. Aib = CC(C)(N)C(=O)O
Legend:
Test in all cases: cell-based or functional assay
GLP-1 receptor [1] = target: T1, GLP-1 receptor (UniProt P43220 24-463, limits assumed)
GIP receptor [2] = target: T2, GIP receptor (UniProt P48546 22-466, limits assumed)
T2 sequence (looked up): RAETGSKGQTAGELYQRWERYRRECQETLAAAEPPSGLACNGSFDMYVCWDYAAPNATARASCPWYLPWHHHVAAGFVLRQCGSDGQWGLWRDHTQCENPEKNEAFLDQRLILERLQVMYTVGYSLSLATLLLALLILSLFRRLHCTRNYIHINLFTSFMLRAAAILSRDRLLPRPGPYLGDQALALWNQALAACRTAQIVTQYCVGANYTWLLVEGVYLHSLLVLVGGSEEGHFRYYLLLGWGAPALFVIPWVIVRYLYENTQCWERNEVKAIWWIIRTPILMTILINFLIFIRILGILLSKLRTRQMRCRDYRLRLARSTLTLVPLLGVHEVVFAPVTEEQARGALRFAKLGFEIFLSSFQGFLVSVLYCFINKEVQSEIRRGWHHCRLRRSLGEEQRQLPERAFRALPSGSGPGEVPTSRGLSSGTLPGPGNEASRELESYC

glucagon receptor [3] = target: T3, glucagon receptor (UniProt P47871 26-477, limits assumed)
T3 sequence (P47871 26-477 limits assumed): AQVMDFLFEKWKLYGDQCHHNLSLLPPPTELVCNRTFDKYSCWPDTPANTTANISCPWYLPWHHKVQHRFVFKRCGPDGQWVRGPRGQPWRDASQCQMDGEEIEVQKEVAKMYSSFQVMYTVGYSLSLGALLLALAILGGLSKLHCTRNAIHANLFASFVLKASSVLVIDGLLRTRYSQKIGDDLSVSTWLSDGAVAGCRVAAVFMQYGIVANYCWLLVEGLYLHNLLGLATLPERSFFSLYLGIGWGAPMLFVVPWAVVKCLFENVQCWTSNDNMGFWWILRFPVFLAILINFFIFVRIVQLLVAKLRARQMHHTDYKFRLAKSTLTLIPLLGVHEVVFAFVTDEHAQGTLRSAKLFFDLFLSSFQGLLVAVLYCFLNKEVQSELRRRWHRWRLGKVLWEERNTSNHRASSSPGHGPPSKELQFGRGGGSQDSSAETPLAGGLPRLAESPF

glucagon receptor [4] = target: T3, glucagon receptor; remark: listed apart in the source
GLP-1 receptor [5] = target: T1, GLP-1 receptor; remark: listed apart in the source
GIP receptor [6] = target: T2, GIP receptor; remark: listed apart in the source

For Y[Aib]QGTFTSDYSIYLDKKAA[Aib]EFVNWLLAGGPSSGAPPPSK-NH2 [mt-402 (SEQ ID NO: 11)], the “EC50 (cAMP reporter)” value (GLP-1 receptor [1]) was 7 pM and the “EC50 (cAMP reporter)” value (GIP receptor [2]) was 18.5 pM.

B1: mt-404 (SEQ ID NO: 13) (peptide)
peptide: HSQGTFISDYSKALDEIHQKEFIAWLMNT-NH2
modifications: lactam 16-20; not fully specified (residue 2); also: AIB at position 2 and position 20 (given S and K), any further modification only
For B1, the “EC50 (cAMP reporter)” value (glucagon receptor [3]) was 108 pM, the “relative activity (to native hormone)” value (glucagon receptor [3]) was 70.8% and the “EC50 (cAMP reporter)” value (GLP-1 receptor [1]) was 6 pM. The “relative activity (to native hormone)” value (GLP-1 receptor [1]) was 258%, the “EC50 (cAMP reporter)” value (GIP receptor [2]) was 32.7 pM and the “relative activity (to native hormone)” value (GIP receptor [2]) was 50.6%.

B2: mt-398 (SEQ ID NO: 18) (peptide)
peptide: YSQGTFTSDYSKYLDEQAAKEFIAWLMNGGPSSGAPPPS-NH2
modifications: lactam 16-20; N-terminus assumed
SMILES: CC[C@H](C)[C@H](NC(=O)[C@H](Cc1ccccc1)NC(=O)[C@H](CCC(=O)O)NC(=O)[C@@H]1CCCCNC(=O)CC[C@H](NC(=O)[C@H](CC(=O)O)NC(=O)[C@H](CC(C)C)NC(=O)[C@H](Cc2ccc(O)cc2)NC(=O)[C@H](CCCCN)NC(=O)[C@H](CO)NC(=O)[C@H](Cc2ccc(O)cc2)NC(=O)[C@H](CC(=O)O)NC(=O)[C@H](CO)NC(=O)[C@@H](NC(=O)[C@H](Cc2ccccc2)NC(=O)[C@@H](NC(=O)CNC(=O)[C@H](CCC(N)=O)NC(=O)[C@H](CO)NC(=O)[C@@H](N)Cc2ccc(O)cc2)[C@@H](C)O)[C@@H](C)O)C(=O)N[C@@H](CCC(N)=O)C(=O)N[C@@H](C)C(=O)N[C@@H](C)C(=O)N1)C(=O)N[C@@H](C)C(=O)N[C@@H](Cc1c[nH]c2ccccc12)C(=O)N[C@@H](CC(C)C)C(=O)N[C@@H](CCSC)C(=O)N[C@@H](CC(N)=O)C(=O)NCC(=O)NCC(=O)N1CCC[C@H]1C(=O)N[C@@H](CO)C(=O)N[C@@H](CO)C(=O)NCC(=O)N[C@@H](C)C(=O)N1CCC[C@H]1C(=O)N1CCC[C@H]1C(=O)N1CCC[C@H]1C(=O)N[C@@H](CO)C(N)=O
For B2, the “EC50 (cAMP reporter)” value (glucagon receptor [4]) was 3740 pM, the “relative activity (to native hormone)” value (glucagon receptor [4]) was 0.8% and the “EC50 (cAMP reporter)” value (GLP-1 receptor [5]) was 7.8 pM. The “relative activity (to native hormone)” value (GLP-1 receptor [5]) was 315%, the “EC50 (cAMP reporter)” value (GIP receptor [6]) was 3.1 pM and the “relative activity (to native hormone)” value (GIP receptor [6]) was 434%.

B3: mt-395 (SEQ ID NO: 15) (peptide)
peptide: HSQGTFTSDYSKYLDEIHQKDFVNWLLAGGPSSGAPPPS-NH2
modifications: lactam 16-20; N-terminus assumed
SMILES: CC[C@H](C)[C@@H]1NC(=O)[C@@H](NC(=O)[C@H](CC(=O)O)NC(=O)[C@H](CC(C)C)NC(=O)[C@H](Cc2ccc(O)cc2)NC(=O)[C@H](CCCCN)NC(=O)[C@H](CO)NC(=O)[C@H](Cc2ccc(O)cc2)NC(=O)[C@H](CC(=O)O)NC(=O)[C@H](CO)NC(=O)[C@@H](NC(=O)[C@H](Cc2ccccc2)NC(=O)[C@@H](NC(=O)CNC(=O)[C@H](CCC(N)=O)NC(=O)[C@H](CO)NC(=O)[C@@H](N)Cc2c[nH]cn2)[C@@H](C)O)[C@@H](C)O)CCC(=O)NCCCC[C@@H](C(=O)N[C@@H](CC(=O)O)C(=O)N[C@@H](Cc2ccccc2)C(=O)N[C@H](C(=O)N[C@@H](CC(N)=O)C(=O)N[C@@H](Cc2c[nH]c3ccccc23)C(=O)N[C@@H](CC(C)C)C(=O)N[C@@H](CC(C)C)C(=O)N[C@@H](C)C(=O)NCC(=O)NCC(=O)N2CCC[C@H]2C(=O)N[C@@H](CO)C(=O)N[C@@H](CO)C(=O)NCC(=O)N[C@@H](C)C(=O)N2CCC[C@H]2C(=O)N2CCC[C@H]2C(=O)N2CCC[C@H]2C(=O)N[C@@H](CO)C(N)=O)C(C)C)NC(=O)[C@H](CCC(N)=O)NC(=O)[C@H](Cc2c[nH]cn2)NC1=O
In the case of B3, the “EC50 (cAMP reporter)” value (glucagon receptor [4]) is reported as 3410 pM, the “relative activity (to native hormone)” value (glucagon receptor [4]) is reported as 0.87% and the “EC50 (cAMP reporter)” value (GLP-1 receptor [5]) is reported as 7.6 pM. For the same binder, the “relative activity (to native hormone)” value (GLP-1 receptor [5]) was 322%, the “EC50 (cAMP reporter)” value (GIP receptor [6]) was 2.5 pM and the “relative activity (to native hormone)” value (GIP receptor [6]) was 537%.

B4: mt-403 (SEQ ID NO: 12) (peptide)
peptide: HSQGTFISDYSKYLDEIHQKEFIAWLMNT-NH2
modifications: lactam 16-20; not fully specified (residue 2); also: AIB at position 2 and position 20 (given S and K), any further modification only
With B4 the “EC50 (cAMP reporter)” value (glucagon receptor [3]) was 7.7 pM, the “relative activity (to native hormone)” value (glucagon receptor [3]) was 987% and the “EC50 (cAMP reporter)” value (GLP-1 receptor [1]) was 2.7 pM. For the same binder, the “relative activity (to native hormone)” value (GLP-1 receptor [1]) was 582%, the “EC50 (cAMP reporter)” value (GIP receptor [2]) was 6.1 pM and the “relative activity (to native hormone)” value (GIP receptor [2]) was 273%.

B5: mt-396 (SEQ ID NO: 16) (peptide)
peptide: YSQGTFTSDYSKYLDEIHQKDFVNWLLAGGPSSGAPPPS-NH2
modifications: lactam 16-20; N-terminus assumed
SMILES: CC[C@H](C)[C@@H]1NC(=O)[C@@H](NC(=O)[C@H](CC(=O)O)NC(=O)[C@H](CC(C)C)NC(=O)[C@H](Cc2ccc(O)cc2)NC(=O)[C@H](CCCCN)NC(=O)[C@H](CO)NC(=O)[C@H](Cc2ccc(O)cc2)NC(=O)[C@H](CC(=O)O)NC(=O)[C@H](CO)NC(=O)[C@@H](NC(=O)[C@H](Cc2ccccc2)NC(=O)[C@@H](NC(=O)CNC(=O)[C@H](CCC(N)=O)NC(=O)[C@H](CO)NC(=O)[C@@H](N)Cc2ccc(O)cc2)[C@@H](C)O)[C@@H](C)O)CCC(=O)NCCCC[C@@H](C(=O)N[C@@H](CC(=O)O)C(=O)N[C@@H](Cc2ccccc2)C(=O)N[C@H](C(=O)N[C@@H](CC(N)=O)C(=O)N[C@@H](Cc2c[nH]c3ccccc23)C(=O)N[C@@H](CC(C)C)C(=O)N[C@@H](CC(C)C)C(=O)N[C@@H](C)C(=O)NCC(=O)NCC(=O)N2CCC[C@H]2C(=O)N[C@@H](CO)C(=O)N[C@@H](CO)C(=O)NCC(=O)N[C@@H](C)C(=O)N2CCC[C@H]2C(=O)N2CCC[C@H]2C(=O)N2CCC[C@H]2C(=O)N[C@@H](CO)C(N)=O)C(C)C)NC(=O)[C@H](CCC(N)=O)NC(=O)[C@H](Cc2c[nH]cn2)NC1=O
For B5, the “EC50 (cAMP reporter)” value (glucagon receptor [4]) was 2900 pM, the “relative activity (to native hormone)” value (glucagon receptor [4]) was 1.03% and the “EC50 (cAMP reporter)” value (GLP-1 receptor [5]) was 9.3 pM. For the same binder, the “relative activity (to native hormone)” value (GLP-1 receptor [5]) was 262%, the “EC50 (cAMP reporter)” value (GIP receptor [6]) was 3.4 pM and the “relative activity (to native hormone)” value (GIP receptor [6]) was 403%.

For Y[Aib]EGTFTSDYSIYLDKQAA[Aib]EFVNWLLAGGPSSGAPPPSK-NH2 [mt-263 (SEQ ID NO: 10)], the “EC50 (cAMP reporter)” value (glucagon receptor [3]) was 4040 pM, the “EC50 (cAMP reporter)” value (GIP receptor [2]) was 5.4 pM and the “EC50 (cAMP reporter)” value (glucagon receptor [4]) was 3140 pM. For the same binder, the “EC50 (cAMP reporter)” value (GIP receptor [6]) was 3.3 pM.

B6: mt-397 (SEQ ID NO: 17) (peptide)
peptide: YSQGTFTSDYSKYLDEIHQKEFVNWLLAQ-NH2
modifications: staple (positions not given here); not fully specified; also: olefinic cross-link, positions not given here
For B6, the “EC50 (cAMP reporter)” value (glucagon receptor [4]) was 5350 pM, the “relative activity (to native hormone)” value (glucagon receptor [4]) was 0.56% and the “EC50 (cAMP reporter)” value (GLP-1 receptor [5]) was 8.5 pM. For the same binder, the “relative activity (to native hormone)” value (GLP-1 receptor [5]) was 288%, the “EC50 (cAMP reporter)” value (GIP receptor [6]) was 2.9 pM and the “relative activity (to native hormone)” value (GIP receptor [6]) was 470%.
